Reference: doi:10.1101/2024.04.15.589559

Target: pre-formed CPX-SNARE complex (Complexin 1 with Syntaxin1A, SNAP25B and VAMP2) (human | rat | mouse) (UniProt O14810)
Sequence (O14810 whole entry, chain 1 of 4): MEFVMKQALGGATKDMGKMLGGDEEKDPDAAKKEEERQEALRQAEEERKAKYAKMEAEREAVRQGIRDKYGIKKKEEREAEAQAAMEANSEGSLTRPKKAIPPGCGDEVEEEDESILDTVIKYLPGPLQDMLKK
Sequence (P32851 whole entry, chain 2 of 4, further chain): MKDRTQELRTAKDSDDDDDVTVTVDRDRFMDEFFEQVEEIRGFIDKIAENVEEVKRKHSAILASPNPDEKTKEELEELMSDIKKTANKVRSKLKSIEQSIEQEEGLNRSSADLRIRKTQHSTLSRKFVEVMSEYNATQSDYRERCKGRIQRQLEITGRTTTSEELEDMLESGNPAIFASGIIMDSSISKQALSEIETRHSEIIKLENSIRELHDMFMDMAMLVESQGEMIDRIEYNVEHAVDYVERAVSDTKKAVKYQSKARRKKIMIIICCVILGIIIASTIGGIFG
Sequence (P60879 whole entry, chain 3 of 4, further chain): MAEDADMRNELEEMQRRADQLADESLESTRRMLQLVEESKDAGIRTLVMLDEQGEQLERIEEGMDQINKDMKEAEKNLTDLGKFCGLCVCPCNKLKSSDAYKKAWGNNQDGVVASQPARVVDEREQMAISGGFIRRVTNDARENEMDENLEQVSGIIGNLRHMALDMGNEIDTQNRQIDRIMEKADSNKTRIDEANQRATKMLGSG
Sequence (P63027 whole entry, chain 4 of 4, further chain): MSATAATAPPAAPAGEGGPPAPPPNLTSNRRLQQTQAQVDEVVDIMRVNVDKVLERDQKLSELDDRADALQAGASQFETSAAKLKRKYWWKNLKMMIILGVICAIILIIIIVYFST

Syt7^DA (SUMO-Syt1^TMD-Syt7 with D225A, D227A, D233A, D357A, D359A) (from UniProt Q62747 17-403)
reduction in Ca2+ (100 μM)-evoked fusion of Syt1^WT/VAMP2 vesicles with Syt7^DA in the t-SNARE bilayer, 1:800 to 1:200 protein-to-lipid (~30% to ~70%): 70%
